In test [1] the target is HLA-B*3501 (human).
In test [2] the target is HLA-B*3501 (human). The source holds these as a separate data set.
The target of test [3] is HLA-B*3501 (human). This is another data set of the same source.

With VPLDCVLYR (synthetic peptide) [gp100 peptide 471-479 VPLDCVLYR], in test [1], the “Stability (half-life of the peptide on HLA-B*35)” value (“Stability” below) was less than 0.5 h. Also, the “RA (relative affinity)” value in test [2] turned out to be 20.

B1: tyrosinase peptide 309-321 TPRLPSSADVEFC (peptide)
peptide: TPRLPSSADVEFC
notes: synthetic peptide; also called 13-mer 309-321
As for B1, in test [1], the “Stability” value is less than 0.5 h. The “RA (relative affinity)” value in test [2] worked out at 16.7.

B2: NY-ESO-1 peptide 94-102 MPFATPMEA (peptide)
peptide: MPFATPMEA
notes: synthetic peptide; also called nonamer 94-102
With B2, the “Stability” value in test [1] was more than 6 h. The “RA (relative affinity)” value in test [2] amounted to 0.4.
For VPLDCVLYRY (synthetic peptide) [gp100 peptide 471-480 VPLDCVLYRY], in that order: more than 6 h and 2.6.

B3: NY-ESO-1 peptide 94-103 MPFATPMEAE (peptide)
peptide: MPFATPMEAE
notes: synthetic peptide; also called decamer 94-103
Consider B3, for which, in test [1], the “Stability” value is more than 6 h.
For the molecule EVDPIGHVY (synthetic peptide) [MAGE-A6 peptide 168-176 EVDPIGHVY], the “Stability” value in test [1] was 6 h. The “RA (relative affinity)” value in test [2] stood at 1.1.
The corresponding values for EAAGIGILY (synthetic modified peptide) [modified Melan-A peptide 26-34 EAAGIGILY] are more than 6 h and 1.32.
For the molecule EPAGIGILY (synthetic modified peptide) [modified Melan-A peptide 26-34 EPAGIGILY], in test [1], the “Stability” value was more than 6 h. Also, the “RA (relative affinity)” value in test [2] came to 0.4.

B4: NY-ESO-1 peptide 92-104 LAMPFATPMEAEL (peptide)
peptide: LAMPFATPMEAEL
notes: synthetic peptide; also called 13-mer 92-104
Consider B4, for which, in test [1], the “Stability” value was more than 6 h. Further, the “RA (relative affinity)” value in test [2] turned out to be 0.58.

B5: NY-ESO-1 peptide 94-104 MPFATPMEAEL (peptide)
peptide: MPFATPMEAEL
notes: synthetic peptide; also called 11-mer 94-104
With B5, the “Stability” value in test [1] was more than 6 h. Also, the “RA (relative affinity)” value in test [2] came out at 1.32.

B6: tyrosinase peptide 309-320 TPRLPSSADVEF (peptide)
peptide: TPRLPSSADVEF
notes: synthetic peptide; also called 12-mer 309-320
On to B6, for which the “Stability” value in test [1] is more than 6 h. Also, in test [2], the “RA (relative affinity)” value stood at 1.3.
The corresponding values for LPSSADVEF (synthetic peptide) [tyrosinase peptide 312-320 LPSSADVEF] are 6 h and 1.25.
In the case of QVPLDCVLYR (synthetic peptide, 70% purity) [gp100 peptide 470-479 QVPLDCVLYR], the binding result in test [3] was “no binding”.

B7: NY-ESO-1 peptide 92-103 LAMPFATPMEAE (peptide)
peptide: LAMPFATPMEAE
notes: synthetic peptide; also called 12-mer 92-103
Consider B7, for which the “Stability” value in test [1] is more than 6 h.

B8: tyrosinase peptide 309-322 TPRLPSSADVEFCL (peptide)
peptide: TPRLPSSADVEFCL
notes: synthetic peptide; also called 14-mer 309-322
Take B8: the “Stability” value in test [1] is more than 6 h. Besides, the “RA (relative affinity)” value in test [2] is more than 20.

Source of the values: patent publication US20060122119A1 (INSTITUT NAT L DE LA SANTE ET DE LA RECHERCHE MED, published 2006).
